# B1: Natural cytotoxicity triggering receptor 3 (Homo sapiens), O14931 (parent)
# chain: MAWMLLLILIMVHPGSCALWVSQPPEIRTLEGSSAFLPCSFNASQGRLAIGSVTWFRDEVVPGKEVRNGTPEFRGRLAPLASSRFLHDHQAELHIRDVRGHDASIYVCRVEVLGLGVGTGNGTRLVVEKEHPQLGAGTVLLLRAGFYAVSFLSVAVGSTVYYQGKCLTWKGPRRQLPAVVPAPLPPPCGSSAHLLPPVPGG
# partner: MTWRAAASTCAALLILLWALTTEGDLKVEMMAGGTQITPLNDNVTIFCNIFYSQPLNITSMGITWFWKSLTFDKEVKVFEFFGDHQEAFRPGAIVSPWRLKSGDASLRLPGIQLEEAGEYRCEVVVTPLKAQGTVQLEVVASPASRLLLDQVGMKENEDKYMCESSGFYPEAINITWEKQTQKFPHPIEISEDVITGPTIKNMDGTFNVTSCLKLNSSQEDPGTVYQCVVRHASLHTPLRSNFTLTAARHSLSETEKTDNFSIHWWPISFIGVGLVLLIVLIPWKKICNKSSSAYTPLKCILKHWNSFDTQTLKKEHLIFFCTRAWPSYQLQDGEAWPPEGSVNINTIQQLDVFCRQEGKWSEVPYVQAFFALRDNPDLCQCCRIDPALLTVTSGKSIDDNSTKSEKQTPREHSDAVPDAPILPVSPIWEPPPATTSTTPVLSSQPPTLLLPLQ
# Variants of: B1
# Details: with nr3l1_human NCR3LG1, Q68D85
row,Variant,effect of a mutation on the interaction
1,E65S;R67S,decreasing interaction strength
2,I50A;S52A,decreasing interaction strength
3,R109S;E111S;L113A,decreasing interaction strength
4,R109E;E111R;L113A,decreasing interaction strength
